# From patent US20100047805
# Columns and labels:
# Assay in all cases: cell_activity
# [1] = tested on: 8267RD R487D (FokI) (synthetic construct); conditions: NHEJ with 8196zDR; TI 28.4%
# [2] = tested on: 8196zDR D450N D483R,D450N (FokI) (synthetic construct); conditions: TI with 8267RD; NHEJ 0.0
# [3] = tested on: 8196zDR D483R (FokI) (synthetic construct); conditions: NHEJ with 8267RD; TI 28.4%
# [4] = tested on: 8196zKK (ZFN-R-KK) E490K,I538K (FokI) (synthetic construct); conditions: NHEJ with 8267EL; TI 29.4%; K562
# [5] = tested on: 8196zKK D467A E490K,I538K,D467A (FokI) (synthetic construct); conditions: TI with 8267EL; NHEJ 0.0
# [6] = tested on: 8196zDR D467A D483R,D467A (FokI) (synthetic construct); conditions: TI with 8267RD; NHEJ 0.0
substance,measurement,setting,value
CCR5 endogenous locus (K562),activity,[1],36.7%
same,activity,[2],1.2%
same,activity,[3],36.7%
same,activity,[4],54.3%
same,activity,[5],1.1%
same,activity,[6],0.7%
